Holding throughout (test): Crosslinking/co-immunoprecipitation/mass spectrometry (TMT quantitative proteomics) to identify irisin receptors
What all share (format): binding

Assay [1] has as its target T1, MLO-Y4 cell surface proteins (Mus musculus, UniProt Q9WTP6).
T1 construct: endogenous in cells; host or cells: MLO-Y4
The note with it: co-precipitated protein Ak2 (KAD2_MOUSE). In a few lines: (§1)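 Relative protein abundance came from 6-plex TMT MS3 quantitation on an Orbitrap Fusion Lumos, after in-gel trypsin digestion of Coomassie-stained SDS-PAGE lanes. Input was a Ni-NTA pulldown (250 mM imidazole elution) of lysates from murine MLO-Y4 cells. These cells were treated on ice with His-tagged irisin or adipsin (10 nM, 20 min) in serum-free medium, then crosslinked with 1.5 mM DTSSP for 30 min.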

In assay [2] the target is T2, MLO-Y4 cell surface proteins (Mus musculus, UniProt P16460).
T2 construct: endogenous in cells; host or cells: MLO-Y4
T2 sequence (P16460 1-412): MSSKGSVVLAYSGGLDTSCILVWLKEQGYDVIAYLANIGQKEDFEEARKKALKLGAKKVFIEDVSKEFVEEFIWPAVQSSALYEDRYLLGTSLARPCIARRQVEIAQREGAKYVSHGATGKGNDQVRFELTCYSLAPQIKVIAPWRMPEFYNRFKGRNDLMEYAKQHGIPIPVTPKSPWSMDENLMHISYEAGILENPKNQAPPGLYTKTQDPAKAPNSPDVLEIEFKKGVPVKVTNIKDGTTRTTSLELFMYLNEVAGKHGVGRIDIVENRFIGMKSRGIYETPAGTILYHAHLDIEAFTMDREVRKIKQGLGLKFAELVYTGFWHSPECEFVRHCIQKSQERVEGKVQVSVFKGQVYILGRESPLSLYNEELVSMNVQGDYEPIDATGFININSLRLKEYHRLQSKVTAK
The note with it: co-precipitated protein Ass1 (ASSY_MOUSE). In a few lines:
as §1

Assay [3] concerns the target T3, MLO-Y4 cell surface proteins (Mus musculus, UniProt P04117).
T3 construct: endogenous in cells; host or cells: MLO-Y4
T3 sequence (P04117 1-132): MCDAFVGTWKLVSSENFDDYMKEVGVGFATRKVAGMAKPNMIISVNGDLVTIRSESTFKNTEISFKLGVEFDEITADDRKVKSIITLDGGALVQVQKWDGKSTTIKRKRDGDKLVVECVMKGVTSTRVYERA
The note with it: co-precipitated protein Fabp4 (FABP4_MOUSE). In a few lines:
as §1

For adipsin, the figures for the TMT signal-to-noise ratio in assay [1], in assay [2] and in assay [3] were 113.461, 285.885 and 746.54, respectively.

Source of the values: US20210063414A1, “METHODS FOR PREVENTING AND/OR TREATING BONE LOSS CONDITIONS BY MODULATING IRISIN” (Dana-Farber Cancer Institute, Inc., priority 2018, published 2021).
